From publication PMC9396414 (2022)

Target: RbPLX7
Experiment: SPR

B1: biotinylated human Plexin-B1 (20–535)-Avi-6xHis (domain or fragment)
chain: LQPLPPTAFTPNGTYLQHLARDPTSGTLYLGATNFLFQLSPGLQLEATVSTGPVLDSRDCLPPVMPDECPQAQPTNNPNQLLLVSPGALVVCGSVHQGVCEQRRLGQLEQLLLRPERPGDTQYVAANDPAVSTVGLVAQGLAGEPLLFVGRGYTSRGVGGGIPPITTRALWPPDPQAAFSYEETAKLAVGRLSEYSHHFVSAFARGASAYFLFLRRDLQAQSRAFRAYVSRVCLRDQHYYSYVELPLACEGGRYGLIQAAAVATSREVAHGEVLFAAFSSAAPPTVGRPPSAAAGASGASALCAFPLDEVDRLANRTRDACYTREGRAEDGTEVAYIEYDVNSDCAQLPVDTLDAYPCGSDHTPSPMASRVPLEATPILEWPGIQLTAVAVTMEDGHTIAFLGDSQGQLHRVYLGPGSDGHPYSTQSIQQGSAVSRDLTFDGTFEHLYVMTQSTLLKVPVASCAQHLDCASCLAHRDPYCGWCVLLGRCSRRSECSRGQGPEQWLWSFQPELGCLQ
modifications: biotin on the Avi-tag (in vitro, BirA enzyme)
Work on B1 yielded a Kd of 0.346 nM.
